From patent US20210347899A1 (BRIGHAM AND WOMEN S HOSPITAL, published 2021) come the findings set out here.

For assay [1], the target named is T1, full length human KLRG1 (human, UniProt Q96E93 1-195).
T1 sequence (looked up): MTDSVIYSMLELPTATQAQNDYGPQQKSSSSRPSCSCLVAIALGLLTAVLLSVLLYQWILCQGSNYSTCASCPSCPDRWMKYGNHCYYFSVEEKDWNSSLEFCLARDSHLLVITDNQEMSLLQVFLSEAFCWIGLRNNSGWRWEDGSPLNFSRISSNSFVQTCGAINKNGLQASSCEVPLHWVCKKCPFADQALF
As to the kind of experiment: cell-based or functional assay.

Assay [2] addresses T1, full length human KLRG1. Briefly: FACS on CHO-human-KLRG1 cells. On the procedure: (§1) Binding of anti-KLRG1 monoclonal antibodies to cell expressed human and cynomolgus-KLRG1 was carried out by FACS. Chinese hamster ovary (CHO) cells were stably transfected to express full length human KLRG1 (CHO-human-KLRG1) and cynomolgus KLRG1 (CHO-cynomolgus-KLRG1).
The target of assay [3] is T2, full length cynomolgus KLRG1 (cynomolgus, UniProt A0A2K5WAP9 1-186).
T2 construct: whole, on cells; also called Cyno KLRG1; CHO-cynomolgus-KLRG1
T2 sequence: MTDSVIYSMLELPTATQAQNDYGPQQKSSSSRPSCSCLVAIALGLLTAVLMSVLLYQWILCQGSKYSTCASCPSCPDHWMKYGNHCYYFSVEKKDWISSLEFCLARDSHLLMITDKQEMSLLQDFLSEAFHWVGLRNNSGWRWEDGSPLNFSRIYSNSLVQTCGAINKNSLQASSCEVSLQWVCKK
Briefly: FACS on CHO-cynomolgus-KLRG1 cells. As for the experimental part:
as §1

Assay [4] deals with T3, cynomolgus KLRG1 ECD (cynomolgus, biotinylated in the OCTET assay, site not stated).
T3 construct: Recombinant proteins were made as FC fusion or as HIS tagged versions; also called cynonolgus KLRG1 ECD
T3 chain: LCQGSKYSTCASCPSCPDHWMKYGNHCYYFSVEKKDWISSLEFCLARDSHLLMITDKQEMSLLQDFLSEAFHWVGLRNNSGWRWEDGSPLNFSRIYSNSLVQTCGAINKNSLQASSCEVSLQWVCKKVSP
Briefly: hybridoma screen for binding to KLRG1 ECD.

A further assay has as its target T4, human KLRG1 ECD (human, UniProt Q96E93 60-186, biotinylated in the OCTET assay, site not stated).
T4 construct: Recombinant proteins were made as FC fusion or as HIS tagged versions; also called Human-KLRG-ECD
T4 sequence: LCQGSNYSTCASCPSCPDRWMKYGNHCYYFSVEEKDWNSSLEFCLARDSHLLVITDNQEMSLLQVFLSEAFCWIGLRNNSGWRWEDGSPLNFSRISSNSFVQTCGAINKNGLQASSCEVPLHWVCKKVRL
As to the kind of experiment: BLI (OCTET), biotinylated antigen on streptavidin sensor, 1:1 fit. On the procedure: (§2) Binding kinetics of humanized antibodies for human and cynomolgus KLRG1 were determined by OCTET® measurement. OCTET® Systems use Bio-Layer Interferometry (BLI) technology to monitor the binding of proteins and other biomolecules to their partners directly in real time, providing analysis of kinetic binding constants. See https.//www.fortebio.com/bli-technology.html, the contents of which, including all links and sublinks associated therewith, is incorporated by reference herein in its entirety. The experimental set-up consists of immobilizing biotinylated recombinant antigen (Human-KLRG-ECD or cynomolgus-KLRG1-ECD) on streptavidin OCTET® sensor to produce antigen loaded sensors. The loaded sensors are the exposed to varying concentrations of each humanized antibody from 100 to 0.1 nM in the OCTET® instruments and data collected for 600 seconds to measure association kinetic (Kₒₙ) of the antibody/antigen complex. […] Kinetic binding parameters derived by this method are summarized in Table 9 for the three humanized antibodies.

Assay [5] concerns the target T3, cynomolgus KLRG1 ECD. The description is as above. As for the experimental part: as §2
The target of assay [6] is T1, full length human KLRG1. As to the kind of experiment: FACS, HIS tagged E-cadherin on CHO-hKLRG1 cells, anti-HIS detection. As for the experimental part: (§3) The ability of monoclonal antibodies to inhibit E-cadherin/KLRG1 binding was measured by FACS. Binding of E-cadherin to CHO-hKLRG1 cells was first determined by incubating the KLRG1 expressing cells with varying concentration of HIS tagged recombinant E-cadherin and detected by FACS with anti-HIS detection antibody.

In assay [7] the target is T1, full length human KLRG1. As to the kind of experiment: cell-based or functional assay. This is another data set of the same source.
The target of assay [8] is T1, full length human KLRG1. Briefly: FACS competition, loss of HIS tagged E-cadherin binding to CHO-hKLRG1 cells. As for the experimental part: as §3
Assay [9] concerns the target T1, full length human KLRG1. Briefly: E-cadherin binding inhibition study, FACS on CHO-hKLRG1 cells; labels of Table 12 stand one row too low, value agrees with ABC_G1N07 in Table 8. On the procedure:
as §3
IC50 values for each antibody were derived from E-cadherin binding inhibition studies and plotted against IFNγ production levels measured in CD8+ T cells IFNγ release assays.

By EC50 is commonly meant the concentration that produces a half-maximal response. A low value points to a more potent agent. One may read the Kd as the equilibrium constant for the complex coming apart. A higher Kd goes with lower affinity. The term koff denotes the first-order rate constant of dissociation. Low values mean a long-lived complex, high ones a short-lived complex. One may read the kon as the rate constant with which the complex forms. Low values mean slow association, high ones fast association. As a reminder, the IC50 is the concentration that inhibits the measured activity by half.

Where only a bound is given, the exact number is not on record here.

B1: ABC_G1N03 (antibody, V domains shown)
VH: QVHLQQSGPELVKPGASVKLSCKASGDTFTTYDITWVKQRPGQGLEWIGWIYPKDGRTQNSEKFKDKATLTVDTSSTTAYMELHSLTSEDSAVYFCARRGQFGPYFDHWGQGSTLTVSS
VL: VIQMTQSSSFLSASLGGRVSITCRASDHIYNWLAWYQQKPGNAPRLLISGATSLETGIPSRFSGGGSGKDYTLTIISLQTEDIASYYCQQYWNTPPTFGGGTKVEIK
notes: Mouse hybridoma monoclonal antibody
With B1, in the assay with full length human KLRG1 [1], the “IFNγ released (pg/ml), Sample 1” value worked out at 934 pg/mL and the “IFNγ released (pg/ml), Sample 2” value was found to be 869 pg/mL. Besides, the response with full length human KLRG1 [2] was half-maximal at 1.3 nM (EC50). Besides, the EC50 in assay [3] is 1.06 nM. Further, the binding result with cynomolgus KLRG1 ECD [4] is “binds”.

B2: ABC_HG1N07 (antibody, IgG1, V domains shown)
VH: QVQLVESGGGLVKPGGSLRLSCAASGFTFRNYAMSWIRQTPGKGLEWVATISESGNYNNYPDNVKGRLTISRDNAKNSLYLQMNSLKAEDTAVYYCVRDDWEGRAMDYWGQGTTVTVSS
VL: DIQMTQSPSSLSASVGDRVTITCRASRDIGSSLNWYQQKPGGAPKRLIYATSSLDSGVPKRFSGSGSGTDFTLTISSLQSEDFATYYCLQYASSPWTFGQGTKVEIKR
Take B2: in the assay with human KLRG1 ECD, the Kd is less than 0.0051 nM, the koff is less than 1e-05 s⁻¹ and the kon was determined as 1.97e+06 M⁻¹ s⁻¹. Besides, in the assay with cynomolgus KLRG1 ECD [5], the Kd is 1.42 nM, the koff was found to be 0.00125 s⁻¹ and the kon stood at 880000 M⁻¹ s⁻¹.

B3: HIS tagged recombinant E-cadherin (ligand)
chain: DWVIPPISCPENEKGPFPKNLVQIKSNKDKEGKVFYSITGQGADTPPVGVFIIERETGWLKVTEPLDRERIATYTLFSHAVSSNGNAVEDPMEILITVTDQNDNKPEFTQEVFKGSVMEGALPGTSVMEVTATDADDDVNTYNAAIAYTILSQDPELPDKNMFTINRNTGVISVVTTGLDRESFPTYTLVVQAADLQGEGLSTTATAVITVTDTNDNPPIFNPTTYKGQVPENEANVVITTLKVTDADAPNTPAWEAVYTILNDDGGQFVVTTNPVNNDGILKTAKGLDFEAKQQYILHVAVTNVVPFEVSLTTSTATVTVDVLDVNEAPIFVPPEKRVEVSEDFGVGQEITSYTAQEPDTFMEQKITYRIWRDTANWLEINPDTGAISTRAELDREDFEHVKNSTYTALIIATDNGSPVATGTGTLLLILSDVNDNAPIPEPRTIFFCERNPKPQVINIIDADLPPNTSPFTAELTHGASANWTIQYNDPTQESIILKPKMALEVGDYKINLKLMDNQNKDQVTTLEVSVCDCEGAAGVCRKAQPVEAGLQIPA
notes: also called human E-cadherin; not shown: HIS tag
In the assay with full length human KLRG1 [6], B3 registered an EC50 of 1000 nM.

B4: ABC_G1N07 (antibody, V domains shown)
VH: EVQLVESGGGLVKPGGSLKLSCTASGFTFRNYAMSWVRQTPEKRLEWVATISESGNYNNYPDNVKGRLTISRDNAKNNLYLQMSLLKSEDTAMYYCVRDDWEGRAMDYWGQGTSVTVSS
VL: GIQMTQSPSSLSASLGERVSLTCRASRDIGSSLNWLQQKPDGTIKRLIYATSSLDSGVPKRFSGSRSGTDYSLTISSLESEDFVDYFCLQYASSPWTFGGGTKLEIK
notes: as for B1
Turning to B4, the “IFNγ released (pg/ml), Sample 1” value with full length human KLRG1 [1] was 1580 pg/mL. In the assay with full length human KLRG1 [1], the “IFNγ released (pg/ml), Sample 2” value was 1390 pg/mL. Besides, in the assay with full length human KLRG1 [7], the “IFNγ” value was 1480 pg/mL. Besides, the values for the EC50 (in the assay with full length human KLRG1 [2]; in assay [3]) were 0.94 nM and 0.98 nM, respectively. The binding result in the assay with cynomolgus KLRG1 ECD [4] is listed as “binds”. For the same molecule, the IC50 in the assay with full length human KLRG1 [8] and in the assay with full length human KLRG1 [9] was 9.6 nM in each case.

B5: ABC_G1N06 (antibody, V domains shown)
VH: QVQLKQSGPGLVQPSQSLSITCTVSGFSLTTHAVHWVRQSPGKGLDWLGVIWSGGNTDYNAAFISRLTISKDNSKSQVFFKMNSLQADDTAIYYCVRLLLPAMDYWGQGTSVTVSS
VL: QIVLTQSPAIMSASLGERVTMTCTATSSVSSTYLHWYRQKPGSSPKLWIYSTSTLASGVPVRFRGSGSGTSYSLTISSMEAEDAATYYCHQYRRSPYTFGGGTKLEIK
notes: as for B1
For the molecule B5, in the assay with full length human KLRG1 [1], the “IFNγ released (pg/ml), Sample 1” value turned out to be 1020 pg/mL and the “IFNγ released (pg/ml), Sample 2” value is 1140 pg/mL. Also, the EC50 in the assay with full length human KLRG1 [2] was 1.43 nM. The molecule further showed an EC50 in assay [3] of 1.5 nM. Besides, the binding result with cynomolgus KLRG1 ECD [4] is on record as “binds”. Also, in the assay with full length human KLRG1 [8], the IC50 amounted to 41 nM.

B6: ABC_HG1N01 (antibody, IgG1, V domains shown)
VH: QVILKESGPGLVKPTQTLTLTCTFSGFSLTTFGMGIGWIRQPPGKALEWLAHIWWNDDKSYNSALKSRLTISKDTSKNQVVLTMTNMDPVDTATYYCARTIYYGNYLTFYAMEHWGQGTTVTVSS
VL: DILMTQSPLSLPVTPGEPASISCRSSQNIVHSNGNTYLEWYLQKPGQSPRLLIYKVSNRFSGVPDRFSGSGSGTDFTLKISRVEAEDVGVYYCFQGSHVPPTFGAGTKLELKR
On to B6, for which, in the assay with human KLRG1 ECD, the Kd was 0.125 nM, the koff is 0.000287 s⁻¹ and the kon is 2.29e+06 M⁻¹ s⁻¹. In the assay with cynomolgus KLRG1 ECD [5], this molecule yielded a Kd of 0.0617 nM, a koff of 4.1e-05 s⁻¹ and a kon of 664000 M⁻¹ s⁻¹.

B7: ABC_HG1N02 (antibody, IgG1, V domains shown)
VH: QVTLKESGPGLVKPTQTLTLTCTFSGFSLSTFGMGVGWIRQPPGKALEWLAHIWWDDDKWYELALKSRLTISKDSSKNQVVLTMTNMDPVDTATYYCARVIYYGSRSAYYSMDYWGPGTTVTVSS
VL: DILMTQSPLSLPVTPGEPASISCKSSQSIVHSNGHTYLEWYLQKPGQSPRLLIYKVSNRFSGVPDRFSGSGSGTDFTLKISRVEAEDVGVYYCFQGSHVPVTFGAGTKLELKR
Regarding B7, in the assay with human KLRG1 ECD, the Kd stood at 0.243 nM, the koff stood at 0.000681 s⁻¹ and the kon turned out to be 2.8e+06 M⁻¹ s⁻¹. In the assay with cynomolgus KLRG1 ECD [5], this molecule came in with a Kd of 0.0647 nM, a koff of 4.07e-05 s⁻¹ and an on-rate (kon) of 630000 M⁻¹ s⁻¹.

B8: ABC_G1N04 (antibody, V domains shown)
VH: DVQLVESGGGLVQPGGSRKLSCAASGFSFSTFGMHWVRQVPEKGLEWVAYISSGSYSIFYADSVKGRFTISRDNPKNTLFLQMTSLRSEDTAIYYCTRTRDSGSSPHYFDYWGQGTTVTVSS
VL: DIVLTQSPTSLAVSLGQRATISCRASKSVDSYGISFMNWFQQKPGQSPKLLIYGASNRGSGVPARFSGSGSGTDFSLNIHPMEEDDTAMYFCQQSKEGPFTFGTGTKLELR
notes: as for B1
For B8, in the assay with full length human KLRG1 [1], the “IFNγ released (pg/ml), Sample 1” value was found to be 987 pg/mL and the “IFNγ released (pg/ml), Sample 2” value was found to be 1000 pg/mL. In the assay with full length human KLRG1 [2], this molecule returned an EC50 of 29 nM. Moreover, the EC50 in assay [3] was determined as 0.47 nM. In addition, the binding result with cynomolgus KLRG1 ECD [4] was “binds”.

B9: ABC_G1N01 (antibody, V domains shown)
VH: QVILKESGPGILQPSQTLSLTCSFSGFSLTTFGMGIGWIRHPSGKALEWLAHIWWNDDKSYNSALKSRLTISKDTSKNQVFLRLANVATADTATYYCARTIYYGNYLTFYAMEHWGQGTSVTVSS
VL: DVLLTQTPLSLPVSLGDQASISCRSSQNIVHSNGNTYLEWYLLKPGQSPKLLIFKVSNRFSGVPDKFSGSGSGTDFTLKIRRVEAEDLGIYYCFQGSHVPPTFGAGTKLELK
notes: as for B1
B9: the “IFNγ released (pg/ml), Sample 1” value with full length human KLRG1 [1] came out at 1190 pg/mL. Moreover, the “IFNγ released (pg/ml), Sample 2” value in the assay with full length human KLRG1 [1] came to 1220 pg/mL. Moreover, the “IFNγ” value with full length human KLRG1 [7] is 1200 pg/mL. Further, the results for the EC50 (with full length human KLRG1 [2]; in [3]) were 1.21 nM and 1.45 nM, respectively. For the same molecule, in the assay with cynomolgus KLRG1 ECD [4], the binding result is given as “binds”. In addition, the IC50 with full length human KLRG1 [8] was 12.2 nM.
